Values joined by “and” are separate entries in the source; they are usually repeats but may differ in a detail not shown here. Equal entries are not always repeated.
B1: CLIP-associating protein 2: PKGIα substrate, phospho site S436 (protein, UniProt Q99JD4 1-1286, looked up)
CLIP-associating protein 2: MRRLICKRICDYKSFDDEESVDGNRPSSAASAFKVPAPKTPGNPVNSARKPGSAGGPKAGGTSKEGGAGAVDEDDFIKAFTDVPSIQIYSSRELEETLNKIREILSDDKHDWDQRANALKKIRSLLVAGAAQYDCFFQHLRLLDGALKLSAKDLRSQVVREACITVAHLSTVLGNKFDHGAEAIVPTLFNLVPNSAKVMATSGCAAIRFIIRHTHVPRLIPLITSNCTSKSVPVRRRSFEFLDLLLQEWQTHSLERHAAVLVETIKKGIHDADAEARVEARKTYMGLRNHFPGEAETLYNSLEPSYQKSLQTYLKSSGSVASLPQSDRSSSSSQESLNRPFSSKWSTANPSAVAGRVSVGGSKASPLPGSLQRSRSDIDVNAAAGAKAHHAAGQAVRSGRLGAGALNPGSYASLEDTSDKMDGTASEDGRVRAKLSTPLVAVGNAKTDSRGRSRTKMVSQSQPGSRSGSPGRVLTTTALSTVSSGAQRILVNSASAQKRSKIPRSQGCSREASPSRLSVARSSRIPRPSVSQGCSREASRESSRDTSPVRSFQPLGPGYGMSQSSRLSSSVSAMRVLNTGSDVEEAVADALLLGDIRTKKKPARRRYESYGMHSDDDANSDASSACSERSYSSRNGSIPTYMRQTEDVAEVLNRCASSNWSERKEGLLGLQNLLKNQRTLSRVELKRLCEIFTRMFADPHGKVFSMFLETLVDFIQVHKDDLQDWLFVLLTQLLKKMGADLLGSVQAKVQKALDVTRESFPNDLQFNILMRFTVDQTQTPSLKVKVAILKYIETLAKQMDPGDFINSSETRLAVSRVITWTTEPKSSDVRKAAQSVLISLFELNTPEFTMLLGALPKTFQDGATKLLHNHLRNTGNGTQSSMGSPLTRPTPRSPANWSSPLTSPTNTSQNTLSPSAFDYDTENMNSEDIYSSLRGVTEAIQNFSFRSQEDMSEPLKRDPKKEDGDTVCSGPGMSDPRAGGDAPDSSQPALDNKASLLHSVPLHSSPRSRDYNPYNYSDSISPFNKSALKEAMFDDDADQFPDDLSLDHSDLVAELLKELSNHNERIEERKIALYELMKLTQEESFSVWDEHFKTILLLLLETLGDKEPTIRALALKVLKEILRHQPARFKNYAELTVMKTLEAHKDPHKEVVRSAEEAASVLATSISPEQCIKVLCPIIQTADYPINLAAIKMQTKVIERVSKETLNLLLPEIMPGLIQGYDNSESSVRKACVFCLVAVHAVIGDELKPHLSQLTGSKMKLLNLYIKRAQTGSAGADPTTDVSGQS
modifications: phosphorylated at S436
B2: Cytoplasmic dynein 1 light intermediate chain 1: PKGIα substrate, phospho sites T408 (r11) and S412 (r12) (protein, UniProt Q9QXU8 1-523, looked up)
Cytoplasmic dynein 1 light …: MAAVGRVGSFGSSPPGLASTYASGPLANELASGSGGPAAGDDEDGQNLWSRILREVSTRSRSKLPTGKNVLLLGEDGAGKTSLIRRIQGIEEYKKGRGLEYLYLNVHDEDRDDQTRCNVWILDGDLYHKGLLKFSLDALSLRDTLVMLVVDMSKPWTALDSLQKWASVVREHVDKLKIPPEEMKEMEQKLIRDFQEYVEPGEDFPASPQRRATAAQEDRDDSVVLPLGADTLTHNLGLPVLVVCTKCDAISVLEKEHDYRDEHFDFIQSHIRKFCLQYGAALIYTSVKENKNIDLVYKYIVQKLYGFPYKIPAVVVEKDAVFIPAGWDNDKKIGILHENFQTLKIEDNFEDIITKPPVRKFVHEKEIMAEDDQVFLMKLQSLLAKQPPTAAGRPVDASPRVPGGSPRTPNRSVSSNVASVSPIPAGSKKIDPNMKAGATSEGVLANFFNSLLSKKTGSPGGPGVGGSPGGGAAGASTSLPPSAKKSGQKPVLSDVHAELDRITRKPASVSPTTPPSPTEGEAS
modifications: phosphorylated at T408 and S412
B3: G-protein-signaling modulator 1: PKGIα substrate, phospho site S567 (protein, UniProt Q9R080 1-673, looked up)
G-protein-signaling modulator …: MASPAPPAAEELPGPAARRLYSRMEASCLELALEGERLCKAGDFKAGVAFFEAAVQVGTEDLKTLSAIYSQLGNAYFYLKEYARALQFHKHDLLLARTIGDRMGEAKASGNLGNTLKVLGRFDEAIVCCQRHLDIAQEQGDKVGEARALYNIGNVYHAKGKQLSWNAAQDPGHLPPDVRETLHRASEFYERNLSLVKELGDRAAQGRAYGNLGNTHYLLGNFTEATTFHKERLAIAKEFGDKAAERRAYSNLGNAHIFLGRFDVAAEHYKKTLQLSRQIRDQAVEAQACYSLGNTYTLLQDYERAAEYHLRHLVIAQELADRVGEGRACWSLGNAYVSMGSPAQALTFAKKHLQISQEIGDRNGELTARMNIAHLQLALGRLTSPAAAEKPDLAGYEAQGARPKRTQRLSAETWDLLRLPLDREQNGETHHTGDWRGPSRDSLPLPMRSRKYQEGPDAIERRPREGSHSPLDSADVRVQVPRTGIPRAPSSDEECFFDLLSKFQSSRMDDQRCPLEEGQAGAAEATAAPTLEERAAQPSVTASPQTEEFFDLIASSQSRRLDDQRASVGSLPGLRITLNNVGHLRGDGDPQEPGDEFFNMLIKYQSSRIDDQRCPPPDVLPRGPTMPDEDFFSLIQRVQAKRMDEQRVDLAGSPDQEASGLPDPRQQCPPGAS
modifications: phosphorylated at S567
B4: Heat shock protein beta-6: PKGIα substrate, phospho site S16 (protein, UniProt P97541 1-162, looked up)
Heat shock protein beta-6: MEIRVPVQPSWLRRASAPLPGFSTPGRLFDQRFGEGLLEAELASLCPAAIAPYYLRAPSVALPTAQVPTDPGYFSVLLDVKHFSPEEISVKVVGDHVEVHARHEERPDEHGFIAREFHRRYRLPPGVDPAAVTSALSPEGVLSIQATPASAQASLPSPPAAK
modifications: phosphorylated at S16
B5: Histone H1.4: PKGIα substrate, phospho site S36 (protein, UniProt P43274 2-219, looked up)
Histone H1.4: SETAPAAPAAPAPAEKTPVKKKARKAAGGAKRKTSGPPVSELITKAVAASKERSGVSLAALKKALAAAGYDVEKNNSRIKLGLKSLVSKGTLVQTKGTGASGSFKLNKKAASGEAKPKAKRAGAAKAKKPAGAAKKPKKAAGTATAKKSTKKTPKKAKKPAAAAGAKKAKSPKKAKATKAKKAPKSPAKAKTVKPKAAKPKTSKPKAAKPKKTAAKKK
modifications: phosphorylated at S36
B6: Histone H1.5: PKGIα substrate, phospho site T35 (protein, UniProt D3ZBN0 2-222, looked up)
Histone H1.5: SETAPAETTAPAPVEKSPAKKKTKKAGAAKRKATGPPVSELITKAVSASKERGGVSLPALKKALAAGGYDVEKNNSRIKLGLKSLVSKGTLVQTKGTGASGSFKLNKKVASGEAKPKAKKTGAAKAKKPTGATPKKPKKTAGAKKTVKKTPKKAKKPAAAGVKKVTKSPKKAKAAAKPKKATKSPARPKAVKSKASKPKVTKPKAAKPKAAKVKKAVSKKK
modifications: phosphorylated at T35
B7: Lyrm1 pS110 (protein, UniProt B2RYU8 1-122, looked up)
LYR motif-containing protein 1: MTAASRQEVLGLYRSFFRLARKWQAASGQMEDTIKEKQYILNEARTLFQKNKNLTDPDLIKQCIDECTARIEIGLHYQIPYPRPIHLPPMGLTPRRGRGLQTQEKLRKFSKPLYLKSHDEVS
modifications: phosphorylated at S110

Assays:
[1] = system: PKGIα (analogue-sensitive C42S/M438G), cGMP-activated; test: Chemical genetic phosphoproteomic screen, cGMP-activated PKGIα C42S/M438G versus unactivated control; type: biochemical, human PKGIα; substrates in rat heart homogenate; settings: n=4
From the text: (§1) We employed a chemical genetic method[18] to identify direct substrates of cGMP-activated PKGIα and disulfide bond-activated PKGIα in heart tissue. This method involves mutation of the ATP binding-site of the kinase of interest so that it can accept a ‘bulky' N6-alkylated ATP analogue for example, N6^−phenylethyl ATP. An oxygen atom on the γ phosphate is also replaced with a sulfur atom—giving an N6-alkylated ATPγS analogue—so that the mutant kinase catalyses the transfer of a thiophosphate group (–PO3S^3−) to its substrates instead of a phosphate. The thiophosphate group is nucleophilic, providing a basis for substrates of the analogue-sensitive kinase to be purified by a ‘covalent capture' protocol. LC–MS/MS allows identification of the substrate and localization of the phosphorylation site. Thiophosphorylated proteins can also be detected with a thiophosphate ester-specific antibody. Analogue-sensitive mutants of PKGIα and PKGIα C42S (which cannot form the activating intermolecular disulfide bond) were generated by mutating Met438 in the ATP-binding domain to Gly. This mutation was chosen based on a previous study where an analogue-sensitive mutant of the catalytic subunit of PKA—which shares sequence homology with PKGIα—was engineered. Detailed protocols are given below.
(§2) A pCDNA3 expression vector encoding human FLAG-tagged PKGIα (ref. [41]) underwent site-directed mutagenesis to generate constructs for untagged WT, C42S, M438G and C42S/M438G PKGIα. Mutations were introduced using the QuikChange II Site-Directed Mutagenesis Kit (Agilent) according to the manufacturer's instructions. Expression and purification of the PKGIα mutants was performed according to a published method[42] as follows: suspension FreeStyle 293-F cells (ThermoFisher Scientific) were transfected with the appropriate PKGIα construct using the stable cationic polymer polyethyleneimine (PEI) as a transfection reagent. After ∼72 h cells were harvested by centrifugation (400g; room temperature; 15 min), re-suspended in ice cold lysis buffer (25 mM sodium phosphate buffer pH 6.8; 10 mM ethylenediaminetetraacetic acid (EDTA); 100 mM NaCl; 10 mM benzamidine hydrochloride; and 10 mM dithiothreitol (DTT)) and frozen in liquid N2. Cells were lysed by three freeze (liquid N2)-thaw (37 °C) cycles and the lysate was clarified by centrifugation at 140,000g and 4 °C for 30 min. The soluble protein fraction was loaded onto a pre-equilibrated 8-(2-aminoethylamino)adenosine-3′, 5′-cyclic monophosphate column (8-AEA-cAMP agarose; BioLog, Germany) followed by washing with 20 column volumes of lysis buffer. The column was further washed with lysis buffer +3 M NaCl (5 column volumes) and PKGIα was then eluted with lysis buffer +150 mM NaCl and 500 μM cAMP. Removal of cAMP and buffer exchange was achieved by extensive dialysis against 25 mM sodium phosphate buffer pH 6.8, 2 mM EDTA and 100 mM NaCl. For ITC analysis, WT PKGIα was incubated with 10 mM lipoic acid for 2 h on ice to obtain ∼100% disulfide dimer (confirmed by SDS-PAGE). Oxidized WT or C42S PKGIα was further purified by size exclusion chromatography using a HiLoad 16/600 Superdex 200 pg column (GE Healthcare) with 50 mM sodium phosphate buffer pH 7.4 and 100 mM NaCl. Proteins were concentrated using Amicon Ultra centrifugal filter devices (Merck Millipore). DTT was absent in storage buffers so that the activating disulfide bond would not be reduced and so that the PKGIα M438G mutant would be oxidized to disulfide dimer in the presence of air (confirmed by SDS-PAGE). Protein concentration was determined by Pierce BCA assay (ThermoFisher) and enzyme activity was confirmed using the Omnia kinase assay kit (ThermoFisher).
(§3) Male Wistar rats (9–10 weeks; body weight 300–330 g) were euthanized by intraperitoneal injection of sodium pentobarbitone (200 mg kg^−1) with heparin (500 USP units). […]

[2] = system: PKGIα (analogue-sensitive M438G), disulfide-activated; test: Chemical genetic phosphoproteomic screen, disulfide-activated PKGIα M438G versus unactivated control; type: biochemical, human PKGIα; substrates in rat heart homogenate; settings: for Log2 fold change in phosphorylation, Disulfide versus control: n=4
From the text: as §1, §2, §3

[3] = PKGIα C42S/M438G + 100 μM cGMP vs basal, 1 h, 30 °C, pH 7.5, rat heart homogenate, label-free LC–MS/MS, * P<0.05 Dunnett: all values except phospholamban S16
[4] = disulfide-activated PKGIα M438G vs basal, 1 h, 30 °C, pH 7.5, rat heart homogenate, label-free LC–MS/MS, * P<0.05 Dunnett: only phospholamban S16

Molecule	Log2 fold change in phosphorylation, cGMP versus control [1, 3]	Log2 fold change in phosphorylation, Disulfide versus control [2, 4]	Log2 fold change in phosphorylation, cGMP versus control ([1]; phospho site S412 (second site of this protein), * P<0.05)	Log2 fold change in phosphorylation, Disulfide versus control ([2]; phospho site S412 (second site of this protein), not significant)	log2 fold change Disulfide vs Control ([2]; control = PKGIα C42S/M438G)
B1	1.79*	0.86			
B2	3.76*	1.95	4.15*	1.66	
B3	2.93*	1.04			
B4	2.61*	1.25			
B5	1.30*	0.48			
B6	3.90*	1.43			
B7					0.4439 and 0.5384

Source: article PMC5095173, “Disulfide-activated protein kinase G Iα regulates cardiac diastolic relaxation and fine-tunes the Frank–Starling response” (Nature Communications, 2016)
